{"source": "paper PMC8602626", "biological_target": "GluA1::SNAP396 (UniProt P19490)", "sequence (P19490 19-907)": "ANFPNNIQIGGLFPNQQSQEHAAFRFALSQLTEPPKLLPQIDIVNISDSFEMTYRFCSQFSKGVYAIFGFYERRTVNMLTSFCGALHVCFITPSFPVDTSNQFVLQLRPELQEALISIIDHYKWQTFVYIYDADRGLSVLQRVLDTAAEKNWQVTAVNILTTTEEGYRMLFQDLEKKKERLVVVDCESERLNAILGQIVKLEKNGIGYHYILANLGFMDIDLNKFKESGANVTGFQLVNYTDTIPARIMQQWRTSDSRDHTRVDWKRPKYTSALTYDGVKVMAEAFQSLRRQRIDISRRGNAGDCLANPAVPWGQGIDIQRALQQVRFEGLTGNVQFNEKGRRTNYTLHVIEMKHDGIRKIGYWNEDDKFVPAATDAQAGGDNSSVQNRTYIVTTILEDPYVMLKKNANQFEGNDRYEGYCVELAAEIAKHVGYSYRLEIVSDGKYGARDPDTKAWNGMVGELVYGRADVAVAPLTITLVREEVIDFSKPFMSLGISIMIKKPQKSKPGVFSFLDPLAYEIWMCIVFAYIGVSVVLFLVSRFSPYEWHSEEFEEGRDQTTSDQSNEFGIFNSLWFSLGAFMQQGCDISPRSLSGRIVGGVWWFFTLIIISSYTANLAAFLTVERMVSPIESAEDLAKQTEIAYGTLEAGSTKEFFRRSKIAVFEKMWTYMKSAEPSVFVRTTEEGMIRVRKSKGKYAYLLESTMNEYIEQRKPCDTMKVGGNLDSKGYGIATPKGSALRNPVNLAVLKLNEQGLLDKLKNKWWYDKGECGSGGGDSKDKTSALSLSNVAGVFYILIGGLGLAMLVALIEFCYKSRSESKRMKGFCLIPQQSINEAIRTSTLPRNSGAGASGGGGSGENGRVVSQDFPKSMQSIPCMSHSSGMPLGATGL"}
{"binder": "γ2 S44* (natural protein, TCO*A (trans-cyclooct-2-ene-L-lysine) at 44, clicked with H-Tet-Cy3) MGLFDRGVQMLLTTVGAFAAFSLMTIAVGTDYWLYSRGVCKTKKVSENETSKKNEEVMTHSGLWRTCCLEGNFKGLCKQIDHFPEDADYEADTAEYFLRAVRASSIFPILSVILLFMGGLCIAASEFYKTRHNIILSAGIFFVSAGLSNIIGIIVYISANAGDPSKSDSKKNSYSYGWSFYFGALSFIIAEMVGVLAVHMFIDRHKQLRATARATDYLQASAITRIPSYRYRYQRRSRSSSRSTEPSHSRDASPVGVKGFNTLPSTEISMYTLSRDPLKAATTPTATYNSDRDNSFLQVHNCIQKDSKDSLHANTANRRTTPV", "values": [{"measurement": "recovery from desensitization τrec, whole-cell patch clamp, HEK293T cells with untagged GluA1 (flip isoform) and γ2 S44*::eGFP (GluA1 alone 162.6)", "result": 62.3, "unit": "ms"}]}
{"binder": "γ8::eGFP (natural protein) MESLKRWNEERGLWCEKGVQVLLTTIGAFAAFGLMTIAISTDYWLYTRALICNTTNLTAGDDGPPHRGGSGSSEKKDPGGLTHSGLWRICCLEGLKRGVCVKINHFPEDTDYDHDSAEYLLRVVRASSIFPILSAILLLLGGVCVAASRVYKSKRNIILGAGILFVAAGLSNIIGVIVYISANAGEPGPKRDEEKKNHYSYGWSFYFGGLSFILAEVIGVLAVNIYIERSREAHCQSRSDLLKAGGGAGGSGGSGPSAILRLPSYRFRYRRRSRSSSRGSSEASPSRDASPGGPGGPGFASTDISMYTLSRDPSKGSVAAGLASAGGGGGGAGVGAYGGAAGAAGGGGTGSERDRGSSAGFLTLHNAFPKEAASGVTVTVTGPPAAPAPAPPAPAAPAPGTLSKEAAASNTNTLNRKTTPV", "values": [{"measurement": "recovery from desensitization τrec, whole-cell patch clamp, HEK293T cells with untagged GluA1 (flip isoform) and γ8::eGFP (GluA1 alone 162.6)", "result": 40.9, "unit": "ms"}]}
{"binder": "γ8 S72* (natural protein, TCO*A (trans-cyclooct-2-ene-L-lysine) at 72, clicked with H-Tet-Cy3) MESLKRWNEERGLWCEKGVQVLLTTIGAFAAFGLMTIAISTDYWLYTRALICNTTNLTAGDDGPPHRGGSGKSEKKDPGGLTHSGLWRICCLEGLKRGVCVKINHFPEDTDYDHDSAEYLLRVVRASSIFPILSAILLLLGGVCVAASRVYKSKRNIILGAGILFVAAGLSNIIGVIVYISANAGEPGPKRDEEKKNHYSYGWSFYFGGLSFILAEVIGVLAVNIYIERSREAHCQSRSDLLKAGGGAGGSGGSGPSAILRLPSYRFRYRRRSRSSSRGSSEASPSRDASPGGPGGPGFASTDISMYTLSRDPSKGSVAAGLASAGGGGGGAGVGAYGGAAGAAGGGGTGSERDRGSSAGFLTLHNAFPKEAASGVTVTVTGPPAAPAPAPPAPAAPAPGTLSKEAAASNTNTLNRKTTPV", "values": [{"measurement": "recovery from desensitization τrec, whole-cell patch clamp, HEK293T cells with untagged GluA1 (flip isoform) and γ8 S72*::eGFP (GluA1 alone 162.6)", "result": 45.8, "unit": "ms"}]}
{"binder": "γ2::eGFP (natural protein) MGLFDRGVQMLLTTVGAFAAFSLMTIAVGTDYWLYSRGVCKTKSVSENETSKKNEEVMTHSGLWRTCCLEGNFKGLCKQIDHFPEDADYEADTAEYFLRAVRASSIFPILSVILLFMGGLCIAASEFYKTRHNIILSAGIFFVSAGLSNIIGIIVYISANAGDPSKSDSKKNSYSYGWSFYFGALSFIIAEMVGVLAVHMFIDRHKQLRATARATDYLQASAITRIPSYRYRYQRRSRSSSRSTEPSHSRDASPVGVKGFNTLPSTEISMYTLSRDPLKAATTPTATYNSDRDNSFLQVHNCIQKDSKDSLHANTANRRTTPV", "values": [{"measurement": "recovery from desensitization τrec, whole-cell patch clamp, HEK293T cells with untagged GluA1 (flip isoform) and γ2::eGFP (GluA1 alone 162.6)", "result": 57.1, "unit": "ms"}]}
